# Assay results: publication PMC12583548 (Nature Communications, 2025)
# Where “and” joins values, the source holds several entries; their conditions need not be identical. Equal values may be shown once.
# Tests used:
# [1] = biological target: HAstV1 capsid spike domain, Avitag-biotinylated (human astrovirus 1 (HAstV1), UniProt O12792 433-645, biotin on the Avitag); assay: BLI; biosensors loaded with biotinylated HAstV1 spike (streptavidin, as in Fig. 1a); human or mouse FcRn in solution, 500, 250, 125, 62.5 nM; pH 7.0 (0.1 M sodium phosphate, 150 mM NaCl, 0.05% Tween-20), 25 °C; 1:1 model; average of three replicates; settings: both partners purified
# [2] = biological target: T1, human FcRn mutant D153E (ectodomain heterodimer with β2M) (human, UniProt P55899 24-297; P61769 21-119, D153E); assay: BLI; HAstV1 spike loaded, FcRn mutants in solution at 500, 250, 125, 62.5 and 31.25 nM; pH 7.0; 1:1 model; settings: both partners purified
# T1 construct: signal peptide in the construct; ectodomain of the FcRn α-chain (FCGRT gene), Met1-Ser297 of UniProt P55899; β-2-microglobulin, Met1-Met119 of UniProt P61769; source: CHO-S, electroporated, purified from the medium (StrepTrap XT)
# [3] = biological target: T2, human FcRn mutant T149N_G151T (ectodomain heterodimer with β2M) (human, UniProt P55899 24-297; P61769 21-119, T149N | G151T); assay: as above; settings: both partners purified
# T2 construct: signal peptide in the construct; ectodomain of the FcRn α-chain (FCGRT gene), Met1-Ser297 of UniProt P55899; β-2-microglobulin, Met1-Met119 of UniProt P61769; The change brings in the N-linked glycosylation site of mouse FcRn; source: CHO-S, electroporated, purified from the medium (StrepTrap XT)
# [4] = biological target: T3, neonatal Fc receptor (FcRn), recombinant human ectodomain heterodimer of FcRn α-chain and β2 microglobulin, … (human, UniProt P55899;P61769, biotin on the AviTag (where FcRn was loaded on streptavidin biosensors)); assay: as above; settings: both partners purified
# T3 construct: also called human FcRn; wild-type FcRn; source: CHO-S, electroporated, purified from the medium (StrepTrap XT); not shown: AviTag, C-terminal, kept
# [5] = biological target: T3, neonatal Fc receptor (FcRn), …; assay: BLI; HIS1K biosensors loaded with 10x histidine-tagged spike, FcRn in solution at 1000, 500, 250, 125 and 62.5 nM; pH 7.0 buffer, 25 °C; 1:1 model; settings: both partners purified
# [6] = biological target: T4, neonatal Fc receptor (FcRn), recombinant ectodomain heterodimer of FcRn α-chain and β2 microglobulin (human, UniProt P55899 24-297; P61769 21-119); assay: BLI; streptavidin biosensors loaded with Avitag-biotinylated HAstV1 spike K467H (3 ug/mL), dipped into FcRn (2000 nM in the shown replicate); pH 7.0 (0.1 M sodium phosphate, 150 mM NaCl, 0.05% Tween-20); 25 °C; 1:1 binding model; triplicate; settings: both partners purified
# T4 construct: signal peptide in the construct; ectodomain of the wild-type FCGRT gene (FcRn α-chain), human, UniProt P55899, Met1-Ser297; followed by a C-terminal thrombin cleavage site before the tags; β-2-microglobulin (β2M), human, UniProt P61769, Met1-Met119; Tags were removed with thrombin only for crystallization; nothing is said of their removal for BLI; also called human FcRn; wild-type FcRn; source: …
# [7] = biological target: T4, neonatal Fc receptor (FcRn), …; assay: BLI; streptavidin biosensors loaded with Avitag-biotinylated HAstV1 spike K467H, dipped into FcRn; pH 5.0 (0.1 M sodium acetate, 150 mM NaCl, 0.05% Tween-20); 25 °C; 1:1 binding model; triplicate; settings: both partners purified
# [8] = biological target: the molecule itself; assay: crystal structure; FcRn-HAstV1 spike complex, tags removed, 3.4 Å; hanging drop, 0.1 M NaCl, 0.1 M Bis-Tris:HCl pH 6.1, 1 M ammonium sulfate
# [9] = biological target: T3, neonatal Fc receptor (FcRn), …; assay: BLI; streptavidin biosensors loaded with Avitag-biotinylated spike, FcRn in solution (500-62.5 nM for the wild type); pH 7.0 (0.1 M sodium phosphate, 150 mM NaCl, 0.05% Tween-20), 25 °C; 1:1 model; settings: both partners purified
# [10] = biological target: T3, neonatal Fc receptor (FcRn), …; assay: BLI; streptavidin biosensors loaded with Avitag-biotinylated spike, FcRn in solution (500-62.5 nM for the wild type); pH 5.0 (0.1 M sodium acetate, 150 mM NaCl, 0.05% Tween-20), 25 °C; 1:1 model; settings: both partners purified
binder,measurement,setting,value
recombinant mouse FcRn (receptor) chain 1: SETRPPLMYHLTAVSNPSTGLPSFWATGWLGPQQYLTYNSLRQEADPCGAWMWENQVSWYWEKETTDLKSKEQLFLEALKTLEKILNGTYTLQGLLGCELASDNSSVPTAVFALNGEEFMKFNPRIGNWTGEWPETEIVANLWMKQPDAARKESEFLLNSCPERLLGHLERGRRNLEWKEPPSMRLKARPGNSGSSVLTCAAFSFYPPELKFRFLRNGLASGSGNCSTGPNGDGSFHAWSLLEVKRGDEHHYQCQVEHEGLAQPLTVDLDSSARSS chain 2: IQKTPQIQVYSRHPPENGKPNILNCYVTQFHPPHIEIQMLKNGKKIPKVEMSDMSFSKDWSFYILAHTEFTPTETDTYACRVKHASMAEPKTVYWDRDM,Kd,[1],58 nM
same,koff,[1],0.003 s⁻¹
same,kon,[1],52000 M⁻¹ s⁻¹
"HAstV1 capsid spike domain, 10x histidine-tagged (domain or fragment, capsid spike domain of the HAstV1 capsid protein (ORF2), UniProt O12792; also called HAstV1 spike; WT; source: E. coli T7Express, purified (HisPur cobalt resin); not shown: His10, C-terminal, kept) KVVLTFGAPMSPNANNKQTWVNKPLDAPSGHYNVKIAKDVDHYLTMQGFTSIASVDWYTIDFQPSEAPAPIQGLQVLVNISKKADVYAIKQFVTAQTNNKHQVTSLFLVKVTTGFQVNNYLSYFYRASATGDATTNLLVRGDTYTAGISFTQGGWYLLTNTSIVDGAMPPGWVWNNVELKTNTAYHMDKGLVHLIMPLPESTQMCYEMLTSIP",Kd,[2],1600 nM
same,Kd,[3],500 nM
same,Kd,[4],230 nM
same,Kd,[5],270 nM
same,koff,[5],0.014 s⁻¹
same,kon,[5],52000 M⁻¹ s⁻¹
"HAstV1 capsid spike mutant K467H, Avitag-biotinylated (domain or fragment, biotin on the Avitag, also called HAstV1_K467H spike; HAstV1 spike K467H; source: T7Express E. coli, purified (HisPur cobalt resin); not shown: Avitag, C-terminal, kept) KVVLTFGAPMSPNANNKQTWVNKPLDAPSGHYNVHIAKDVDHYLTMQGFTSIASVDWYTIDFQPSEAPAPIQGLQVLVNSSKKADVYAIKQFVTAQTNNKHQVTSLFLVKVTTGFQVNNYLSYFYRASATGDATTNLLVRGDTYTAGISFTQGGWYLLTNTSIVDGAMPPGWVWNNVELKTNTAYHMDKGLVHLIMPLPESTQMCYEMLTSIP",Kd,[6],19200 nM and 21500 nM and 26800 nM
same,koff,[6],0.239 s⁻¹ and 0.259 s⁻¹ and 0.236 s⁻¹
same,kon,[6],12500 M⁻¹ s⁻¹ and 12000 M⁻¹ s⁻¹ and 8800 M⁻¹ s⁻¹
same,Kd,[7],447 nM and 869 nM and 1040 nM
same,koff,[7],0.033 s⁻¹ and 0.0561 s⁻¹ and 0.0625 s⁻¹
same,kon,[7],73900 M⁻¹ s⁻¹ and 64500 M⁻¹ s⁻¹ and 60200 M⁻¹ s⁻¹
"HAstV1 capsid spike domain, tag removed with thrombin (domain or fragment, capsid spike domain of the HAstV1 capsid protein (ORF2), UniProt O12792; Form used for the SEC complex and the crystal; also called HAstV1 spike; source: E. coli T7Express, purified (HisPur cobalt resin), tag removed with thrombin, SEC; not shown: His10, C-terminal, cleaved) KVVLTFGAPMSPNANNKQTWVNKPLDAPSGHYNVKIAKDVDHYLTMQGFTSIASVDWYTIDFQPSEAPAPIQGLQVLVNISKKADVYAIKQFVTAQTNNKHQVTSLFLVKVTTGFQVNNYLSYFYRASATGDATTNLLVRGDTYTAGISFTQGGWYLLTNTSIVDGAMPPGWVWNNVELKTNTAYHMDKGLVHLIMPLPESTQMCYEMLTSIP",stoichiometry N,[8],2
"HAstV1 capsid spike domain, Avitag-biotinylated (domain or fragment, biotin on the Avitag, capsid spike domain of the HAstV1 capsid protein (ORF2), UniProt O12792; it may carry a further tag for the cobalt resin; also called biotinylated HAstV1 spike; Avitag-biotinylated HAstV1 spike; source: E. coli T7Express, purified (HisPur cobalt resin)) KVVLTFGAPMSPNANNKQTWVNKPLDAPSGHYNVKIAKDVDHYLTMQGFTSIASVDWYTIDFQPSEAPAPIQGLQVLVNISKKADVYAIKQFVTAQTNNKHQVTSLFLVKVTTGFQVNNYLSYFYRASATGDATTNLLVRGDTYTAGISFTQGGWYLLTNTSIVDGAMPPGWVWNNVELKTNTAYHMDKGLVHLIMPLPESTQMCYEMLTSIP",Kd,[9],188 nM
same,Kd,[10],102 nM
"HAstV8 capsid spike domain, 10x histidine-tagged (domain or fragment, capsid spike domain of the HAstV8 capsid protein (ORF2); also called HAstV8 spike; source: E. coli T7Express, purified (HisPur cobalt resin); not shown: His10, C-terminal, kept) GEQFRVLLTVGPPMAPNTANSQNWVNKTIVPPENQYTVKIGIDLEHYTTMQGFTPVESVSWYTADFQPSDEPSPIPGLYARVNNTKKADVYGVQQFKSSHTNNRHQITSVFLVRVTTSFQVINYTSYFIRGAESGSNVSNLKIRDQTYHTPLQFTQGKWYLLTSTVMHDGPTSSGWVWMNQELTNNIAYRVDPGMMYLITPPPAASQLYFELHTVLPQA",Kd,[5],390 nM
same,koff,[5],0.03 s⁻¹
same,kon,[5],76000 M⁻¹ s⁻¹
